Reference: publication PMC9482650, “Quantitative fragmentomics allow affinity mapping of interactomes” (Nature Communications, 2022)

T1: ARHGAP21, Q5T5U3
T1 sequence (Q5T5U3 45-169, limits assumed, looked up): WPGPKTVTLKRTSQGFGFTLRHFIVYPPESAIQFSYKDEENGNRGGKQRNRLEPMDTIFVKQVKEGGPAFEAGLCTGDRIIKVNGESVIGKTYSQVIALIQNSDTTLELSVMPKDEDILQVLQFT

T2: DFNB31_1, Q9P202
T2 sequence (Q9P202 135-233, limits assumed, looked up): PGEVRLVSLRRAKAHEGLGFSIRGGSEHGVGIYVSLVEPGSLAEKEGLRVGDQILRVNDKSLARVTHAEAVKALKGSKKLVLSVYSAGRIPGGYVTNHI

T3: DLG3_1, Q92796
T3 sequence (Q92796 125-227, limits assumed, looked up): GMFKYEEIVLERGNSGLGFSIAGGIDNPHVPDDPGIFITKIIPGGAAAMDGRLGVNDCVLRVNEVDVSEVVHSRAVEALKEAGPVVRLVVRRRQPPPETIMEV

T4: DLG3_3, Q92796
T4 sequence (Q92796 374-475, limits assumed, looked up): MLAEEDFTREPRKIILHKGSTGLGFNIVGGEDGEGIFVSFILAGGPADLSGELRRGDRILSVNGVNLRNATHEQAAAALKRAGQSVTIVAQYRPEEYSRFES

T5: GRIP1_2, Q9Y3R0
T5 sequence (Q9Y3R0 145-248, limits assumed, looked up): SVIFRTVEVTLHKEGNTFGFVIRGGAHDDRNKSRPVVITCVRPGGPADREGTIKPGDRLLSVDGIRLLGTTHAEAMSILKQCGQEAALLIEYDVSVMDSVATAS

T6: GRIP1_5, Q9Y3R0
T6 sequence (Q9Y3R0 568-668, limits assumed, looked up): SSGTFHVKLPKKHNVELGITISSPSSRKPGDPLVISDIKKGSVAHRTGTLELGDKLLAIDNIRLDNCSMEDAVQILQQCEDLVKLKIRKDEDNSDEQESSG

T7: GRIP1_7, Q9Y3R0
T7 sequence (Q9Y3R0 999-1096, limits assumed, looked up): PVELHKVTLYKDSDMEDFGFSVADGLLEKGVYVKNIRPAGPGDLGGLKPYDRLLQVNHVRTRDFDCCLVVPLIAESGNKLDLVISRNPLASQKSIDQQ

T8: LNX2_3, Q8N448
T8 sequence (Q8N448 463-564, limits assumed, looked up): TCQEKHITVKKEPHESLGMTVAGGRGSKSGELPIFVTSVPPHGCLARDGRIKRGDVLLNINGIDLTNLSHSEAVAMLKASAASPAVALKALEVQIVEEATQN

T9: MPDZ_12, O75970
T9 sequence (O75970 1857-1958, limits assumed, looked up): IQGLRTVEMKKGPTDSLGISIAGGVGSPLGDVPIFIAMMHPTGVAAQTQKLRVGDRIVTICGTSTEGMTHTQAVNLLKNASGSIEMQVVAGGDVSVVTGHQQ

T10: PARD3B_1, Q8TEW8
T10 sequence (Q8TEW8 196-299, limits assumed, looked up): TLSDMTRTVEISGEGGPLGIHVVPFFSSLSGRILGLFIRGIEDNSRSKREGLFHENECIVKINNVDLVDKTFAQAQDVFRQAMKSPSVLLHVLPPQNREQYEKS

T11: RHPN1, Q8TCX5
T11 sequence (Q8TCX5 508-602, limits assumed, looked up): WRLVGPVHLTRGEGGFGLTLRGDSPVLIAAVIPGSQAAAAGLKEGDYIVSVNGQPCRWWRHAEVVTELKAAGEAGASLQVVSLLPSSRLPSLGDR

T12: TJP3_3, O95049
T12 sequence (O95049 375-456, limits assumed, looked up): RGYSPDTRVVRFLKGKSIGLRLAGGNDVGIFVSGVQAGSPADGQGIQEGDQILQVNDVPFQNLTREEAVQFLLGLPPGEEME


How the values were obtained:
Test in all cases: holdup assay
Set-up in all cases: key: below the threshold = too weak to quantify, mostly under pKd 3.1 to 4
Details in all cases: plain residues with an end cap or a label only (N-terminal biotin on a linker: ttds)
[1] = biological target: T1, ARHGAP21, Q5T5U3
[2] = biological target: T2, DFNB31_1, Q9P202
[3] = biological target: T3, DLG3_1, Q92796
[4] = biological target: T4, DLG3_3, Q92796
[5] = biological target: DLG4_1, P78352
Sequence of DLG4_1, P78352 (P78352 62-152): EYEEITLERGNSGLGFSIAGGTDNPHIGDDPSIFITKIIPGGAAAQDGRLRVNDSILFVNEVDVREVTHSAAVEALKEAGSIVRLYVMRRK

[6] = biological target: FRMPD2_1, Q68DX3
Sequence of FRMPD2_1, Q68DX3 (Q68DX3 770-861): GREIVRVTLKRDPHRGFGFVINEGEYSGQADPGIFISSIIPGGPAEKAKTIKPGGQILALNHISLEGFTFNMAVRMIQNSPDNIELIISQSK

[7] = biological target: GORASP2, Q9H8Y8
[8] = biological target: GRID2IP_1, A4D2P6
Sequence of GRID2IP_1, A4D2P6 (A4D2P6 1-87): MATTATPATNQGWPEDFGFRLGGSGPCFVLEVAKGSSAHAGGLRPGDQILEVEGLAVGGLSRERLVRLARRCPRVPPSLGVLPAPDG

[9] = biological target: GRID2IP_2, A4D2P6
Sequence of GRID2IP_2, A4D2P6 (A4D2P6 272-370): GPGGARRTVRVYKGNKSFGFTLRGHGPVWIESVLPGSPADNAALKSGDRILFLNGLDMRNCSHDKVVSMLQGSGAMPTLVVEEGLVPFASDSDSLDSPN

[10] = biological target: T5, GRIP1_2, Q9Y3R0
[11] = biological target: T6, GRIP1_5, Q9Y3R0
[12] = biological target: T7, GRIP1_7, Q9Y3R0
[13] = biological target: HTRA1, Q92743
Sequence of HTRA1, Q92743 (Q92743 360-477): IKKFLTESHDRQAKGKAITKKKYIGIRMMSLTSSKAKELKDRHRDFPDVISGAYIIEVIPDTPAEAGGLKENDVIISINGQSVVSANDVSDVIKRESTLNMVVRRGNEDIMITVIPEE

[14] = biological target: IL16_3, Q14005
Sequence of IL16_3, Q14005 (Q14005 1107-1207): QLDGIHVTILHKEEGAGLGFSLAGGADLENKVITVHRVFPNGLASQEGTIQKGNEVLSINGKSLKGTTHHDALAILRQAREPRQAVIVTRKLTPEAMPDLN

[15] = biological target: Inadl_5, Q8NI35
Sequence of Inadl_5, Q8NI35 (Q8NI35 673-780): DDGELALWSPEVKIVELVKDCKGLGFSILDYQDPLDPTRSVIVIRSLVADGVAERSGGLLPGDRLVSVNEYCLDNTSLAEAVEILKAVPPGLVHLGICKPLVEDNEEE

[16] = biological target: LDB3, O75112
Sequence of LDB3, O75112 (O75112 1-94): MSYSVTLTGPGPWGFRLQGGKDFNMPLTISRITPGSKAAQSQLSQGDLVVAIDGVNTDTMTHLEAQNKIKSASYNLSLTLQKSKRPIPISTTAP

[17] = biological target: LIMK2, P53671
Sequence of LIMK2, P53671 (P53671 143-248): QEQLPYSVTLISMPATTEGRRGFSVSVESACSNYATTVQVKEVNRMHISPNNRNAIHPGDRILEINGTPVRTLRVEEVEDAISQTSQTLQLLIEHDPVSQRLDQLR

[18] = biological target: T8, LNX2_3, Q8N448
[19] = biological target: T9, MPDZ_12, O75970
[20] = biological target: NHERF4_1, Q86UT5-2
Sequence of NHERF4_1, Q86UT5-2 (Q86UT5 other isoform, or with tags, fused parts or gaps): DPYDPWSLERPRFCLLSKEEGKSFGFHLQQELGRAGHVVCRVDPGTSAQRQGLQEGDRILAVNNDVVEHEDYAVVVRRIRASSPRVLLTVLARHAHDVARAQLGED

[21] = biological target: T10, PARD3B_1, Q8TEW8
[22] = biological target: PTPN3, P26045
Sequence of PTPN3, P26045 (P26045 505-587): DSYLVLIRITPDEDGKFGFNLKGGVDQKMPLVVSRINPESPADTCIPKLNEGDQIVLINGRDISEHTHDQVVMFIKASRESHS

[23] = biological target: T11, RHPN1, Q8TCX5
[24] = biological target: SNX27, Q96L92
[25] = biological target: T12, TJP3_3, O95049

Row | Binder | pKd [1] | pKd [2] | pKd [3] | pKd [4] | pKd [5] | pKd [6] | pKd [7] | pKd [8] | pKd [9] | pKd [10] | pKd [11] | pKd [12] | pKd [13] | pKd [14] | pKd [15] | pKd [16] | pKd [17] | pKd [18] | pKd [19] | pKd [20] | also measured
1 | QRPYRRESEI [KCNJ12, Q14500] | below the threshold | 4.02 | below the threshold | 4.32 | 4.22 | below the threshold | 3.74 | below the threshold | below the threshold | below the threshold | below the threshold | below the threshold | below the threshold | below the threshold | below the threshold | below the threshold | below the threshold | below the threshold | below the threshold | below the threshold | pKd [21]: below the threshold; pKd [22]: 4.65; pKd [23]: 3.5; pKd [24]: below the threshold; pKd [25]: below the threshold
2 | GRLLGLETNV [ARHGEF26, Q96DR7] | below the threshold | 3.91 | 4.13 | 4.23 | 4.68 | below the threshold | 3.97 | below the threshold | below the threshold | below the threshold | below the threshold | 4.11 | below the threshold | below the threshold | below the threshold | below the threshold | below the threshold | below the threshold | below the threshold | below the threshold | pKd [21]: below the threshold; pKd [22]: 4.69; pKd [23]: 4.48; pKd [24]: 4.49; pKd [25]: below the threshold
